Drawing on publication PMC3375900, this text covers percent of STAM remaining in the cytosol after immunodepletion of Hrs for one substance.

The test addresses Hrs (rat (endogenous in rat brain cytosol)) (UniProt Q9JJ50). The test is described as follows: co-IP.
Sequence of UniProt Q9JJ50 (Q9JJ50 whole entry): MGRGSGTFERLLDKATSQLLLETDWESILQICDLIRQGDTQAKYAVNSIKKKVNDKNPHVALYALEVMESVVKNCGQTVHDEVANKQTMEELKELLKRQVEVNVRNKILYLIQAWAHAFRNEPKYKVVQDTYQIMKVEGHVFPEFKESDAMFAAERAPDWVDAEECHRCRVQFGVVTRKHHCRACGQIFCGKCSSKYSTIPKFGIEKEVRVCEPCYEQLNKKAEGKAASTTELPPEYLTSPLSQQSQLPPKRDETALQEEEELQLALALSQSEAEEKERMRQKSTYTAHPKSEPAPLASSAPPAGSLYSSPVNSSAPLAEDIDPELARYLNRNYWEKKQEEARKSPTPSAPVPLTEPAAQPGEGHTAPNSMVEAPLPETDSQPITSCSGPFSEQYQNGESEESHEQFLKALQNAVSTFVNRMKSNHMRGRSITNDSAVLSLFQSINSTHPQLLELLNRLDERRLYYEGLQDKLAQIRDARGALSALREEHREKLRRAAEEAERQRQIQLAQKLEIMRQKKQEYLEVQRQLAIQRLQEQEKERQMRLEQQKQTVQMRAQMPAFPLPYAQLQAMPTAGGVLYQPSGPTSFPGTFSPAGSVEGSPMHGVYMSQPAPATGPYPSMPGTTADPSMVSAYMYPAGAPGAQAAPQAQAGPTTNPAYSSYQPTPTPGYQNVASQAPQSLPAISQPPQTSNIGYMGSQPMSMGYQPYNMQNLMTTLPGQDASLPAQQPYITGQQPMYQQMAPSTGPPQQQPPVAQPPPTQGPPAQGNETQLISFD

“signal-transducing adaptor molecule (STAM) (from UniProt Q5XHY7 1-523) (natural protein)” returned a percent of STAM remaining in the cytosol after immunodepletion of Hrs of 16.5%.
